Target: T1, CD3ε homodimer protein (human, UniProt P07766 23-126, limits assumed, sulfo-tag or biotin label in the ECL assays; amine-coupled to the chip in SPR)
T1 construct: also called human CD3ε homodimer protein; CD3 (CD3ε)
Assay: SPR Biacore T200; CD3ε homodimer on CM4 chip;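 further: Single-residue variant antibodies injected as analyte over CD3ε homodimer immobilized by amine coupling, run at 25 °C in HBS-EP+ buffer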
Protocol: An appropriate amount of CD3ε homodimer protein was immobilized onto Sensor chip CM4 (GE Healthcare Japan Corp.) by the amine coupling method. Then, the antibody having an appropriate concentration was injected thereto as an analyte and allowed to interact with the CD3ε homodimer protein on the sensor chip. Then, the sensor chip was regenerated by the injection of 10 mmol/L glycine-HCl (pH 1.5). The assay was conducted at 25° C., and HBS-EP+ (GE Healthcare Japan Corp.) was used as a running buffer. […] Each parameter was calculated using Biacore T200 Evaluation Software (GE Healthcare Japan Corp.).

T1 sequence (P07766 23-126 limits assumed): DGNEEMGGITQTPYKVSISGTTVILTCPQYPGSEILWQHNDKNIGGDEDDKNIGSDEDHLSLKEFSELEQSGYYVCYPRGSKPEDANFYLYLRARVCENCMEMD

| Binder | ratio of amounts bound Z=Y/X (altered form / CE115HA000) |
| --- | --- |
| CE115HA000 K52I one-arm antibody (antibody, human IgG1, kappa, L234A L235A, N297A, name in Kabat numbering) heavy: QVQLVESGGGVVQPGRSLRLSCAASGFTFSNAWMHWVRQAPGKGLEWVAQIIAKSNNYATYYAESVKGRFTISRDDSKNSLYLQMNSLKTEDTAVYYCRYVHYGAYYGVDAWGQGTTVTVSSASTKGPSVFPLAPSSKSTSGGTAALGCLVKDYFPEPVTVSWNSGALTSGVHTFPAVLQSSGLYSLSSVVTVPSSSLGTQTYICNVNHKPSNTKVDKKVEPKSCDKTHTCPPCPAPEAAGGPSVFLFPPKPKDTLMISRTPEVTCVVVDVSHEDPEVKFNWYVDGVEVHNAKTKPREEQYASTYRVVSVLTVLHQDWLNGKEYKCKVSNKALPAPIEKTISKAKGQPREPQVYTLPPSRCELTKNQVSLSCAVKGFYPSDIAVEWESNGQPENNYKTTPPVLDSDGSFFLVSKLTVDKSRWQQGNVFSCSVMHEALHNHYTQKSLSLSPDYKDDDDK EPKSSDKTHTCPPCPAPELLGGPSVFLFPPKPKDTLMISRTPEVTCVVVDVSHEDPEVKFNWYVDGVEVHNAKTKPREEQYNSTYRVVSVLTVLHQDWLNGKEYKCKVSNKALPAPIEKTISKAKGQPREPQVCTLPPSRDELTKNQVSLWCLVKGFYPSDIAVEWESNGQPENNYKTTPPVLDSDGSFFLYSKLTVDKSRWQQGNVFSCSVMHEALHNRYTQKSLSLSP light: DIVMTQSPLSLPVTPGEPASISCRSSQSLVHSNRNTYLHWYQQKPGQAPRLLIYKVSNRFSGVPDRFSGSGSGTDFTLKISRVEAEDVGVYYCGQGTQVPYTFGQGTKLEIKRTVAAPSVFIFPPSDEQLKSGTASVVCLLNNFYPREAKVQWKVDNALQSGNSQESVTEQDSKDSTYSLSSTLTLSKADYEKHKVYACEVTHQGLSSPVTKSFNRGEC | 0.33 |
| CE115HA000 K52R one-arm antibody (antibody, human IgG1, kappa, L234A L235A, N297A, name in Kabat numbering) heavy: QVQLVESGGGVVQPGRSLRLSCAASGFTFSNAWMHWVRQAPGKGLEWVAQIRAKSNNYATYYAESVKGRFTISRDDSKNSLYLQMNSLKTEDTAVYYCRYVHYGAYYGVDAWGQGTTVTVSSASTKGPSVFPLAPSSKSTSGGTAALGCLVKDYFPEPVTVSWNSGALTSGVHTFPAVLQSSGLYSLSSVVTVPSSSLGTQTYICNVNHKPSNTKVDKKVEPKSCDKTHTCPPCPAPEAAGGPSVFLFPPKPKDTLMISRTPEVTCVVVDVSHEDPEVKFNWYVDGVEVHNAKTKPREEQYASTYRVVSVLTVLHQDWLNGKEYKCKVSNKALPAPIEKTISKAKGQPREPQVYTLPPSRCELTKNQVSLSCAVKGFYPSDIAVEWESNGQPENNYKTTPPVLDSDGSFFLVSKLTVDKSRWQQGNVFSCSVMHEALHNHYTQKSLSLSPDYKDDDDK EPKSSDKTHTCPPCPAPELLGGPSVFLFPPKPKDTLMISRTPEVTCVVVDVSHEDPEVKFNWYVDGVEVHNAKTKPREEQYNSTYRVVSVLTVLHQDWLNGKEYKCKVSNKALPAPIEKTISKAKGQPREPQVCTLPPSRDELTKNQVSLWCLVKGFYPSDIAVEWESNGQPENNYKTTPPVLDSDGSFFLYSKLTVDKSRWQQGNVFSCSVMHEALHNRYTQKSLSLSP light: DIVMTQSPLSLPVTPGEPASISCRSSQSLVHSNRNTYLHWYQQKPGQAPRLLIYKVSNRFSGVPDRFSGSGSGTDFTLKISRVEAEDVGVYYCGQGTQVPYTFGQGTKLEIKRTVAAPSVFIFPPSDEQLKSGTASVVCLLNNFYPREAKVQWKVDNALQSGNSQESVTEQDSKDSTYSLSSTLTLSKADYEKHKVYACEVTHQGLSSPVTKSFNRGEC | 0.91 |
| CE115HA000 K52N one-arm antibody (antibody, human IgG1, kappa, L234A L235A, N297A, name in Kabat numbering) heavy: QVQLVESGGGVVQPGRSLRLSCAASGFTFSNAWMHWVRQAPGKGLEWVAQINAKSNNYATYYAESVKGRFTISRDDSKNSLYLQMNSLKTEDTAVYYCRYVHYGAYYGVDAWGQGTTVTVSSASTKGPSVFPLAPSSKSTSGGTAALGCLVKDYFPEPVTVSWNSGALTSGVHTFPAVLQSSGLYSLSSVVTVPSSSLGTQTYICNVNHKPSNTKVDKKVEPKSCDKTHTCPPCPAPEAAGGPSVFLFPPKPKDTLMISRTPEVTCVVVDVSHEDPEVKFNWYVDGVEVHNAKTKPREEQYASTYRVVSVLTVLHQDWLNGKEYKCKVSNKALPAPIEKTISKAKGQPREPQVYTLPPSRCELTKNQVSLSCAVKGFYPSDIAVEWESNGQPENNYKTTPPVLDSDGSFFLVSKLTVDKSRWQQGNVFSCSVMHEALHNHYTQKSLSLSPDYKDDDDK EPKSSDKTHTCPPCPAPELLGGPSVFLFPPKPKDTLMISRTPEVTCVVVDVSHEDPEVKFNWYVDGVEVHNAKTKPREEQYNSTYRVVSVLTVLHQDWLNGKEYKCKVSNKALPAPIEKTISKAKGQPREPQVCTLPPSRDELTKNQVSLWCLVKGFYPSDIAVEWESNGQPENNYKTTPPVLDSDGSFFLYSKLTVDKSRWQQGNVFSCSVMHEALHNRYTQKSLSLSP light: DIVMTQSPLSLPVTPGEPASISCRSSQSLVHSNRNTYLHWYQQKPGQAPRLLIYKVSNRFSGVPDRFSGSGSGTDFTLKISRVEAEDVGVYYCGQGTQVPYTFGQGTKLEIKRTVAAPSVFIFPPSDEQLKSGTASVVCLLNNFYPREAKVQWKVDNALQSGNSQESVTEQDSKDSTYSLSSTLTLSKADYEKHKVYACEVTHQGLSSPVTKSFNRGEC | 0.34 |
| CE115HA000 K52S one-arm antibody (antibody, human IgG1, kappa, L234A L235A, N297A, name in Kabat numbering) heavy: QVQLVESGGGVVQPGRSLRLSCAASGFTFSNAWMHWVRQAPGKGLEWVAQISAKSNNYATYYAESVKGRFTISRDDSKNSLYLQMNSLKTEDTAVYYCRYVHYGAYYGVDAWGQGTTVTVSSASTKGPSVFPLAPSSKSTSGGTAALGCLVKDYFPEPVTVSWNSGALTSGVHTFPAVLQSSGLYSLSSVVTVPSSSLGTQTYICNVNHKPSNTKVDKKVEPKSCDKTHTCPPCPAPEAAGGPSVFLFPPKPKDTLMISRTPEVTCVVVDVSHEDPEVKFNWYVDGVEVHNAKTKPREEQYASTYRVVSVLTVLHQDWLNGKEYKCKVSNKALPAPIEKTISKAKGQPREPQVYTLPPSRCELTKNQVSLSCAVKGFYPSDIAVEWESNGQPENNYKTTPPVLDSDGSFFLVSKLTVDKSRWQQGNVFSCSVMHEALHNHYTQKSLSLSPDYKDDDDK EPKSSDKTHTCPPCPAPELLGGPSVFLFPPKPKDTLMISRTPEVTCVVVDVSHEDPEVKFNWYVDGVEVHNAKTKPREEQYNSTYRVVSVLTVLHQDWLNGKEYKCKVSNKALPAPIEKTISKAKGQPREPQVCTLPPSRDELTKNQVSLWCLVKGFYPSDIAVEWESNGQPENNYKTTPPVLDSDGSFFLYSKLTVDKSRWQQGNVFSCSVMHEALHNRYTQKSLSLSP light: DIVMTQSPLSLPVTPGEPASISCRSSQSLVHSNRNTYLHWYQQKPGQAPRLLIYKVSNRFSGVPDRFSGSGSGTDFTLKISRVEAEDVGVYYCGQGTQVPYTFGQGTKLEIKRTVAAPSVFIFPPSDEQLKSGTASVVCLLNNFYPREAKVQWKVDNALQSGNSQESVTEQDSKDSTYSLSSTLTLSKADYEKHKVYACEVTHQGLSSPVTKSFNRGEC | 0.28 |

From patent publication US20260049138A1 (Chugai, published 2026)
